Experimental data from US20220306695A1, “COMPSTATIN ANALOGUES AND THEIR MEDICAL USES” (priority 2019, published 2022).
Positions of bridges follow the written chain, without caps; N, C: chain ends. Non-standard residues stand in square brackets, D forms with d. Trp(1-Me) = Cn1cc(C[C@H](N)C(=O)O)c2ccccc21; 1Nal = N[C@@H](Cc1cccc2ccccc12)C(=O)O; 2Nal = N[C@@H](Cc1ccc2ccccc2c1)C(=O)O; Sar = CNCC(=O)O

B1: Compound 29 (peptide)
peptide: Ac-EGSAICIWQDWGEHRCT-NH2
modifications: disulfide 6-16
SMILES: CC[C@H](C)[C@H](NC(=O)[C@H](C)NC(=O)[C@H](CO)NC(=O)CNC(=O)[C@H](CCC(=O)O)NC(C)=O)C(=O)N[C@H]1CSSC[C@@H](C(=O)N[C@H](C(N)=O)[C@@H](C)O)NC(=O)[C@H](CCCNC(=N)N)NC(=O)[C@H](Cc2c[nH]cn2)NC(=O)[C@H](CCC(=O)O)NC(=O)CNC(=O)[C@H](Cc2c[nH]c3ccccc23)NC(=O)[C@H](CC(=O)O)NC(=O)[C@H](CCC(N)=O)NC(=O)[C@H](Cc2c[nH]c3ccccc23)NC(=O)[C@H]([C@@H](C)CC)NC1=O
B2: Compound 73 (peptide)
peptide: H-[dY]FCI[Trp(1-Me)]QDW[Sar]EHRCTGAES-NH2
modifications: disulfide 3-13
SMILES: CC[C@H](C)[C@@H]1NC(=O)[C@@H](NC(=O)[C@H](Cc2ccccc2)NC(=O)[C@H](N)Cc2ccc(O)cc2)CSSC[C@@H](C(=O)N[C@H](C(=O)NCC(=O)N[C@@H](C)C(=O)N[C@@H](CCC(=O)O)C(=O)N[C@@H](CO)C(N)=O)[C@@H](C)O)NC(=O)[C@H](CCCNC(=N)N)NC(=O)[C@H](Cc2c[nH]cn2)NC(=O)[C@H](CCC(=O)O)NC(=O)CN(C)C(=O)[C@H](Cc2c[nH]c3ccccc23)NC(=O)[C@H](CC(=O)O)NC(=O)[C@H](CCC(N)=O)NC(=O)[C@H](Cc2cn(C)c3ccccc23)NC1=O
B3: Compound 67 (peptide)
peptide: Ac-SEFCI[Trp(1-Me)]QDWGEHRCTGAES-NH2
modifications: disulfide 4-14
SMILES: CC[C@H](C)[C@@H]1NC(=O)[C@@H](NC(=O)[C@H](Cc2ccccc2)NC(=O)[C@H](CCC(=O)O)NC(=O)[C@H](CO)NC(C)=O)CSSC[C@@H](C(=O)N[C@H](C(=O)NCC(=O)N[C@@H](C)C(=O)N[C@@H](CCC(=O)O)C(=O)N[C@@H](CO)C(N)=O)[C@@H](C)O)NC(=O)[C@H](CCCNC(=N)N)NC(=O)[C@H](Cc2c[nH]cn2)NC(=O)[C@H](CCC(=O)O)NC(=O)CNC(=O)[C@H](Cc2c[nH]c3ccccc23)NC(=O)[C@H](CC(=O)O)NC(=O)[C@H](CCC(N)=O)NC(=O)[C@H](Cc2cn(C)c3ccccc23)NC1=O
B4: Compound 85 (peptide)
peptide: Ac-EFCI[Trp(1-Me)]QDWGEHRCES-NH2
modifications: disulfide 3-13
SMILES: CC[C@H](C)[C@@H]1NC(=O)[C@@H](NC(=O)[C@H](Cc2ccccc2)NC(=O)[C@H](CCC(=O)O)NC(C)=O)CSSC[C@@H](C(=O)N[C@@H](CCC(=O)O)C(=O)N[C@@H](CO)C(N)=O)NC(=O)[C@H](CCCNC(=N)N)NC(=O)[C@H](Cc2c[nH]cn2)NC(=O)[C@H](CCC(=O)O)NC(=O)CNC(=O)[C@H](Cc2c[nH]c3ccccc23)NC(=O)[C@H](CC(=O)O)NC(=O)[C@H](CCC(N)=O)NC(=O)[C@H](Cc2cn(C)c3ccccc23)NC1=O
B5: Compound 43 (peptide)
peptide: Ac-FCIWQDWGEHRCTGAE-NH2
modifications: disulfide 2-12
SMILES: CC[C@H](C)[C@@H]1NC(=O)[C@@H](NC(=O)[C@H](Cc2ccccc2)NC(C)=O)CSSC[C@@H](C(=O)N[C@H](C(=O)NCC(=O)N[C@@H](C)C(=O)N[C@@H](CCC(=O)O)C(N)=O)[C@@H](C)O)NC(=O)[C@H](CCCNC(=N)N)NC(=O)[C@H](Cc2c[nH]cn2)NC(=O)[C@H](CCC(=O)O)NC(=O)CNC(=O)[C@H](Cc2c[nH]c3ccccc23)NC(=O)[C@H](CC(=O)O)NC(=O)[C@H](CCC(N)=O)NC(=O)[C@H](Cc2c[nH]c3ccccc23)NC1=O
B6: Compound 63 (peptide)
peptide: Ac-FCI[1Nal]QDWGEHRCTGAES-NH2
modifications: disulfide 2-12
SMILES: CC[C@H](C)[C@@H]1NC(=O)[C@@H](NC(=O)[C@H](Cc2ccccc2)NC(C)=O)CSSC[C@@H](C(=O)N[C@H](C(=O)NCC(=O)N[C@@H](C)C(=O)N[C@@H](CCC(=O)O)C(=O)N[C@@H](CO)C(N)=O)[C@@H](C)O)NC(=O)[C@H](CCCNC(=N)N)NC(=O)[C@H](Cc2c[nH]cn2)NC(=O)[C@H](CCC(=O)O)NC(=O)CNC(=O)[C@H](Cc2c[nH]c3ccccc23)NC(=O)[C@H](CC(=O)O)NC(=O)[C@H](CCC(N)=O)NC(=O)[C@H](Cc2cccc3ccccc23)NC1=O
B7: Compound 81 (peptide)
peptide: Ac-SE[Sar]CI[Trp(1-Me)]QDWGEHRC[Sar]EA-NH2
modifications: disulfide 4-14
SMILES: CC[C@H](C)[C@@H]1NC(=O)[C@@H](NC(=O)CN(C)C(=O)[C@H](CCC(=O)O)NC(=O)[C@H](CO)NC(C)=O)CSSC[C@@H](C(=O)N(C)CC(=O)N[C@@H](CCC(=O)O)C(=O)N[C@@H](C)C(N)=O)NC(=O)[C@H](CCCNC(=N)N)NC(=O)[C@H](Cc2c[nH]cn2)NC(=O)[C@H](CCC(=O)O)NC(=O)CNC(=O)[C@H](Cc2c[nH]c3ccccc23)NC(=O)[C@H](CC(=O)O)NC(=O)[C@H](CCC(N)=O)NC(=O)[C@H](Cc2cn(C)c3ccccc23)NC1=O
B8: Compound 86 (peptide)
peptide: Ac-SEFCI[Trp(1-Me)]QDWGEHKC[Sar]EA-NH2
modifications: disulfide 4-14
SMILES: CC[C@H](C)[C@@H]1NC(=O)[C@@H](NC(=O)[C@H](Cc2ccccc2)NC(=O)[C@H](CCC(=O)O)NC(=O)[C@H](CO)NC(C)=O)CSSC[C@@H](C(=O)N(C)CC(=O)N[C@@H](CCC(=O)O)C(=O)N[C@@H](C)C(N)=O)NC(=O)[C@H](CCCCN)NC(=O)[C@H](Cc2c[nH]cn2)NC(=O)[C@H](CCC(=O)O)NC(=O)CNC(=O)[C@H](Cc2c[nH]c3ccccc23)NC(=O)[C@H](CC(=O)O)NC(=O)[C@H](CCC(N)=O)NC(=O)[C@H](Cc2cn(C)c3ccccc23)NC1=O
B9: Compound 23 (peptide)
peptide: Ac-FCIWQDWGEHRCT-NH2
modifications: disulfide 2-12
SMILES: CC[C@H](C)[C@@H]1NC(=O)[C@@H](NC(=O)[C@H](Cc2ccccc2)NC(C)=O)CSSC[C@@H](C(=O)N[C@H](C(N)=O)[C@@H](C)O)NC(=O)[C@H](CCCNC(=N)N)NC(=O)[C@H](Cc2c[nH]cn2)NC(=O)[C@H](CCC(=O)O)NC(=O)CNC(=O)[C@H](Cc2c[nH]c3ccccc23)NC(=O)[C@H](CC(=O)O)NC(=O)[C@H](CCC(N)=O)NC(=O)[C@H](Cc2c[nH]c3ccccc23)NC1=O
B10: Compound 50 (peptide)
peptide: Ac-EGSAICI[2Nal]QDWGEHRC[Sar]E-NH2
modifications: disulfide 6-16
SMILES: CC[C@H](C)[C@H](NC(=O)[C@H](C)NC(=O)[C@H](CO)NC(=O)CNC(=O)[C@H](CCC(=O)O)NC(C)=O)C(=O)N[C@H]1CSSC[C@@H](C(=O)N(C)CC(=O)N[C@@H](CCC(=O)O)C(N)=O)NC(=O)[C@H](CCCNC(=N)N)NC(=O)[C@H](Cc2c[nH]cn2)NC(=O)[C@H](CCC(=O)O)NC(=O)CNC(=O)[C@H](Cc2c[nH]c3ccccc23)NC(=O)[C@H](CC(=O)O)NC(=O)[C@H](CCC(N)=O)NC(=O)[C@H](Cc2ccc3ccccc3c2)NC(=O)[C@H]([C@@H](C)CC)NC1=O
B11: Compound 49 (peptide)
peptide: Ac-EGSAICI[Trp(1-Me)]QDWGEHRC[Sar]E-NH2
modifications: disulfide 6-16
SMILES: CC[C@H](C)[C@H](NC(=O)[C@H](C)NC(=O)[C@H](CO)NC(=O)CNC(=O)[C@H](CCC(=O)O)NC(C)=O)C(=O)N[C@H]1CSSC[C@@H](C(=O)N(C)CC(=O)N[C@@H](CCC(=O)O)C(N)=O)NC(=O)[C@H](CCCNC(=N)N)NC(=O)[C@H](Cc2c[nH]cn2)NC(=O)[C@H](CCC(=O)O)NC(=O)CNC(=O)[C@H](Cc2c[nH]c3ccccc23)NC(=O)[C@H](CC(=O)O)NC(=O)[C@H](CCC(N)=O)NC(=O)[C@H](Cc2cn(C)c3ccccc23)NC(=O)[C@H]([C@@H](C)CC)NC1=O
B12: Compound 61 (peptide)
peptide: Ac-FCI[Trp(1-Me)]QDWGEHRCTGAES-NH2
modifications: disulfide 2-12
SMILES: CC[C@H](C)[C@@H]1NC(=O)[C@@H](NC(=O)[C@H](Cc2ccccc2)NC(C)=O)CSSC[C@@H](C(=O)N[C@H](C(=O)NCC(=O)N[C@@H](C)C(=O)N[C@@H](CCC(=O)O)C(=O)N[C@@H](CO)C(N)=O)[C@@H](C)O)NC(=O)[C@H](CCCNC(=N)N)NC(=O)[C@H](Cc2c[nH]cn2)NC(=O)[C@H](CCC(=O)O)NC(=O)CNC(=O)[C@H](Cc2c[nH]c3ccccc23)NC(=O)[C@H](CC(=O)O)NC(=O)[C@H](CCC(N)=O)NC(=O)[C@H](Cc2cn(C)c3ccccc23)NC1=O

Target: T1, Human C3 (human, UniProt P01024 23-1663)
T1 construct: In SPR the bought human C3 was immobilised on CM5 chips by amine coupling; In the haemolysis assay the C3 is that of diluted human serum; also called complement C3
T1 sequence (P01024 23-1663 limits assumed): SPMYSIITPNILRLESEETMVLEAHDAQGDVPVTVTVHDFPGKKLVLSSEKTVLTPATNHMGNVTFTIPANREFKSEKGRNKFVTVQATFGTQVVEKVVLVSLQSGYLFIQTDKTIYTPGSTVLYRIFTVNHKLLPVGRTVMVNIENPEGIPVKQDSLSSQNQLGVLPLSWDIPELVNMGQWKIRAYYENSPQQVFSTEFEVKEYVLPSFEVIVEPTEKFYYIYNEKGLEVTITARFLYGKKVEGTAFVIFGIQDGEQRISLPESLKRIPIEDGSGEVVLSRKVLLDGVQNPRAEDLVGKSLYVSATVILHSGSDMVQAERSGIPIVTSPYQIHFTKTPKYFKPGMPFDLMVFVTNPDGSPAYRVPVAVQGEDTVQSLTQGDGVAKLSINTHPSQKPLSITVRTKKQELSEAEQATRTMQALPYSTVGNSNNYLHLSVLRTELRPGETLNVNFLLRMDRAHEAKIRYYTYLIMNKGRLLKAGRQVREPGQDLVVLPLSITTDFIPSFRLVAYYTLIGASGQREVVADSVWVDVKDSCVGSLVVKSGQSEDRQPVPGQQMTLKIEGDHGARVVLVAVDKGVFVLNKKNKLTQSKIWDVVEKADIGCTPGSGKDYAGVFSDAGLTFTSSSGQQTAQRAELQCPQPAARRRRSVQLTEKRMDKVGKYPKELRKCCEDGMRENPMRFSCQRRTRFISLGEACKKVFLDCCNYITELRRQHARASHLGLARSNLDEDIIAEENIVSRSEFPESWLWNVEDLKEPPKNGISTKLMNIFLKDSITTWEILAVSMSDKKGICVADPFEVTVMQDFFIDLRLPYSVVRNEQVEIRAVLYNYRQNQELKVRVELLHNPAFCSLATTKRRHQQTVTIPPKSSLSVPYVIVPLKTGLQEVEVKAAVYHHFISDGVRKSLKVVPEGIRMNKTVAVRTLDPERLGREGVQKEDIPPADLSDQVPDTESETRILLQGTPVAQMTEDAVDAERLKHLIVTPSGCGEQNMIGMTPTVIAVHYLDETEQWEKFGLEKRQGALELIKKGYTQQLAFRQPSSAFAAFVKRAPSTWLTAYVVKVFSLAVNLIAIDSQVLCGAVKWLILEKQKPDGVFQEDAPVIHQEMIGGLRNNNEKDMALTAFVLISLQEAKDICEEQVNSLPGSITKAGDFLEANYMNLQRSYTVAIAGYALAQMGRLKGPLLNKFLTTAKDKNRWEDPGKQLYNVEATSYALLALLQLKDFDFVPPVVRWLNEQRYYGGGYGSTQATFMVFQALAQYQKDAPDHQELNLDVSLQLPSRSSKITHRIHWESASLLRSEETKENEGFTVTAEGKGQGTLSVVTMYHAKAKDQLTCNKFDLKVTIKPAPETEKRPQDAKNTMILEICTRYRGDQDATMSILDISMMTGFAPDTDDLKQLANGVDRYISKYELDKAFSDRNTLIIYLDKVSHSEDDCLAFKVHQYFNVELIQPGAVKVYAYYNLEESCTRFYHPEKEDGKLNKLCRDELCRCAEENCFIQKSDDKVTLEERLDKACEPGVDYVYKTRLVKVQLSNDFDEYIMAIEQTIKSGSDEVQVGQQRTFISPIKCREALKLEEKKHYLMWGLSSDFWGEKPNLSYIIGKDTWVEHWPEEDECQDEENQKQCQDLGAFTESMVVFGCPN
Assay: SPR, C3 immobilised
Experimental: Surface plasmon resonance (SPR) was used to characterize peptides with respect to their binding affinity (Kd) for C3. Human C3 (Complement tech cat #A1 13c) was immobilised on individual flow cells of CM5 sensor chips (GE Healthcare) using standard amine coupling to a density of approximately 3000 resonance units (RU) in a buffer consisting of 10 mM phosphate pH 7.4, 150 mM NaCl, 0.05% Tween20.
For interaction experiments a multi-cycle experiment approach was used and performed using either a Biacore™ T200 or Biacore™ X100 instrument (GE Healthcare) at 25° C. Peptides were injected in increasing concentration series (5-8 different concentrations) for 60-120 s at a flow rate of 30 μL/min in a buffer consisting of 10 mM Tris buffer at pH 7.4, with 150 mM NaCl and 0.05% Tween20. This was followed by a dissociation period for up to 10 min. The C3 surface was regenerated between runs by a 45 s injection of 3 M MgCl₂.
Sensorgrams were double-referenced (reference surface, blanks) prior to analysis of the kinetic profiles by globally fitting data to a 1:1 Langmuir binding model to obtain association and dissociation rates for calculation of the equilibrium dissociation constant Kd. Each peptide was tested at in at least 2 independent experiments.

Kd [nM] | Binder
21 | B1
0.3 | B2
0.68 | B3
1.3 | B4
3.3 | B5
4.3 | B6
9.7 | B7
2.6 | B8
2.8 | B9
13 | B10
3.2 | B11
0.33 | B12

Target: T1, Human C3
Assay: cell-based or functional assay

Binder | IC50[nM], inhibition of hemolysis [nM]
B1 | < 100
B2 | < 100
B3 | < 100
B4 | < 100
B5 | < 100
B6 | < 100
B7 | < 100
B8 | < 100
B9 | < 100
B10 | < 100
B11 | < 100
B12 | < 100
